{
  "source": "paper PMC10030117",
  "about": "(eLife, 2023)",
  "target": "Authentic MERS spike, full-length unstabilized, on the cell surface (MERS-CoV, strain , UniProt K9N5Q8)",
  "sequence (K9N5Q8 18-1353)": "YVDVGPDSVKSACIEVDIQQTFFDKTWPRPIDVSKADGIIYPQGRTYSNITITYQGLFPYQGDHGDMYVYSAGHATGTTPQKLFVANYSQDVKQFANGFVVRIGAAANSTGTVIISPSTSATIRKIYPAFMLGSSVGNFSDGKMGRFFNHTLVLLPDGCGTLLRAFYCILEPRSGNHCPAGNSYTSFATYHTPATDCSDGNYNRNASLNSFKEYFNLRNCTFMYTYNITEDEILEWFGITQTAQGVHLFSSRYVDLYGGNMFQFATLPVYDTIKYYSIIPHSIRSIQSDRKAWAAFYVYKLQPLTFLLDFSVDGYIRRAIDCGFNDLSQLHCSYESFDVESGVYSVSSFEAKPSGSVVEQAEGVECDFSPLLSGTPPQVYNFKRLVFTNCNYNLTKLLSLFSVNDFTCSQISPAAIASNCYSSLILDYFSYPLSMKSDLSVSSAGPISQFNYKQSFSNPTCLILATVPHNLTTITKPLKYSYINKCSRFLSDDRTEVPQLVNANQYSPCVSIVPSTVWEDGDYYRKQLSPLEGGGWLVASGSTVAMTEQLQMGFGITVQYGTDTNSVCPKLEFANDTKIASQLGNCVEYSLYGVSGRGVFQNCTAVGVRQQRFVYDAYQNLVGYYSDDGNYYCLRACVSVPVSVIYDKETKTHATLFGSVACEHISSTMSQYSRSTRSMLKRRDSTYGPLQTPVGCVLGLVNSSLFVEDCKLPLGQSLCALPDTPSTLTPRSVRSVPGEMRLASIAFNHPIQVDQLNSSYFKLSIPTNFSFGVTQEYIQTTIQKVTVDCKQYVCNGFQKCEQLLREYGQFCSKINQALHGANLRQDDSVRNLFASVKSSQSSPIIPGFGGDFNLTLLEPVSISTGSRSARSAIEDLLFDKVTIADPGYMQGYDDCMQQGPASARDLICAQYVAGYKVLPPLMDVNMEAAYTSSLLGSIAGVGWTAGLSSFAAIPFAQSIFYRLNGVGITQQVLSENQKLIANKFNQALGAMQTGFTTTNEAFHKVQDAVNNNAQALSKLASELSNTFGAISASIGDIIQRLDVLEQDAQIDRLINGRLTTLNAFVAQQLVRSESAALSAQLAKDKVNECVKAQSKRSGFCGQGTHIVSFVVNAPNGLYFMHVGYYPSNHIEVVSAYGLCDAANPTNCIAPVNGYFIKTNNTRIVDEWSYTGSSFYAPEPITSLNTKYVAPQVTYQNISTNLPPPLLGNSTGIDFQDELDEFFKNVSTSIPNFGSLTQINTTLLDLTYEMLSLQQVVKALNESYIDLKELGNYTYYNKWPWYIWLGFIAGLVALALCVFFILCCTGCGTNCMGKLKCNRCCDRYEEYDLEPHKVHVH",
  "test": "flow cytometry on cells",
  "conditions": "one partner purified",
  "data": [
    {"binder": "Antibody RAY53, full-length human IgG1 (antibody, V domains shown) VH: QVQLVQSGAVVLKPGASVKLSCKASGFNIKNTYIHWLKQAPGQRLEWIGRIGPAIGNTIYAPKFQGKATITTDTSASTAYLELSSLRSEDTAVYYCARYYGSSYYYLDYWGQGTTVTVSS VL: DIVMTQSPLSVPVTPGEPVSISCRSSKSLLHSNGNTYLYWFLQKPGQSPQLLIARMSTLASGVPDRFSGSGSGTAFTLKISRVEAEDVGVYYCMQYLEYPLTFGAGTKLEIK", "values": [
      {"measurement": "binding result", "value": "binds"}
    ]}
  ]
}
